Patent US20210388087A1 (Chugai, published 2021)
Where a chain is given by its changes, count along the chain named.

B1: dBBDu167/L091 (antibody, V domains shown)
VH: QVQLVESGGGLVQPGRSLRLSCAASGFTFSNAWMHWVRQAPGKGLEWVAQIKDKGNLYAAYYAPSVKGRFTISRDDSKNSIYLQMNSLKTEDTAVYYCHYVHYASAGGGLPGFGVDAWGQGTTVTVSS
VL: DIVMTQSPLSLPVTPGEPASISCSASESLLHNNRHTYLHWYQQKPGQAPRLLIYRVSNRFNGVPDRFSGSGSGTDFTLKISRVEAEDVGVYYCGQGTQVPFTFGQGTKLEIK
notes: IgG format; constant regions not specified
B2: H2591L0581 (antibody, V domains shown)
VH: QVQLVESGGGLVQPGRSLRLSCAASGFKFSNVWFHWVRQAPGKGLEWVAQIKDYYNAYAGYYHPSVKGRFTISRDDSKNSIYLQMNSLKTEDTAVYYCHYVHYAAASTLLPAEGVDAWGQGTTVTVSS
VL: DIVMTQSPLSLPVTPGEPASISCQPSQEVVHMNRNTYLHWYQQKPGQAPRLLIYKVSNRFPGVPDRFSGSGSGTDFTLKISRVEAEDVGVYYCAQGTSHPFTFGQGTKLEIK
notes: Dual-Ig, IgG; also called H2591L581; dBBDu183H2591/dBBDu072L0581
B3: H2594L0581 (antibody, V domains shown)
VH: B2 VH with T108Q
VL: B2 VL
notes: Dual-Ig, IgG; also called H2594L581; dBBDu183H2594/dBBDu072L0581
B4: H1673L0943 (antibody, V domains shown)
VH: B2 VH with K28V, Y54K, Y55W, G60D, H63A, G68E, V101I, A105S, V115I
VL: B2 VL with Q27E, R59L, S98H
notes: Dual-Ig, IgG; also called dBBDu183H1673/dBBDu072L0943
B5: H1649L0943 (antibody, V domains shown)
VH: B2 VH with K28V, Y54K, G60D, H63A, G68E, A105S
VL: B2 VL with Q27E, R59L, S98H
notes: Dual-Ig, IgG; also called dBBDu183H1649/dBBDu072L0943
B6: H1652L0943 (antibody, V domains shown)
VH: B2 VH with K28V, G60D, H63A, K67E, A105S
VL: B2 VL with Q27E, R59L, S98H
notes: Dual-Ig, IgG; also called dBBDu183H1652/dBBDu072L0943
B7: H1673L0581 (antibody, V domains shown)
VH: B2 VH with K28V, Y54K, Y55W, G60D, H63A, G68E, V101I, A105S, V115I
VL: B2 VL
notes: Dual-Ig, IgG; also called dBBDu183H1673/dBBDu072L0581
B8: H1610L0939 (antibody, V domains shown)
VH: B2 VH with K28V, F34M, Y54K, Y55W, G60A, H63A, V101I, A105S, V115I
VL: B2 VL with R59V, S98H
notes: Dual-Ig, IgG; also called H1610L939; dBBDu183H1610/dBBDu072L0939
B9: H0868L0581 (antibody, V domains shown)
VH: B2 VH with F34M, Y54K, G60A, H63A, A105S, E113F
VL: B2 VL
notes: Dual-Ig, IgG; also called H868L581; dBBDu183H0868/dBBDu072L0581
B10: H1571L0581 (antibody, V domains shown)
VH: B2 VH with Y54K, G60T, H63A, A105S, E113F
VL: B2 VL
notes: Dual-Ig, IgG; also called dBBDu183H1571/dBBDu072L0581
B11: H1610L0581 (antibody, V domains shown)
VH: B2 VH with K28V, F34M, Y54K, Y55W, G60A, H63A, V101I, A105S, V115I
VL: B2 VL
notes: Dual-Ig, IgG; also called H1610L581; dBBDu183H1610/dBBDu072L0581
B12: H1647L0581 (antibody, V domains shown)
VH: B2 VH with V32T, A57D, G60A, H63A, A105S
VL: B2 VL
notes: Dual-Ig, IgG; also called dBBDu183H1647/dBBDu072L0581
B13: H1651L0581 (antibody, V domains shown)
VH: B2 VH with K28V, Y54K, G60D, H63A, K67E, A105S
VL: B2 VL
notes: Dual-Ig, IgG; also called dBBDu183H1651/dBBDu072L0581
B14: H1643L0581 (antibody, V domains shown)
VH: B2 VH with G60A, H63A, A105S
VL: B2 VL
notes: Dual-Ig, IgG; also called H1643L581; dBBDu183H1643/dBBDu072L0581
B15: H1649L0581 (antibody, V domains shown)
VH: B2 VH with K28V, Y54K, G60D, H63A, G68E, A105S
VL: B2 VL
notes: Dual-Ig, IgG; also called dBBDu183H1649/dBBDu072L0581
B16: H1550L0918 (antibody, V domains shown)
VH: B2 VH with F34M, Y54K, G60A, H63A, V101I, A105S, E113F
VL: B2 VL with R34N, N35V, T36V
notes: Dual-Ig, IgG; also called H1550L918; dBBDu183H1550/dBBDu072L0918
B17: H183/L072 (antibody, V domains shown)
VH: B1 VH with L57A, G107S, G108T, G109V, G112A
VL: B2 VL with P25A, V29L, H99V
notes: Dual-Fab antibody (Dual-Ig), bivalent IgG; also called parental Dual-Fab H183L072; dBBDu183H/dBBDu072L
B18: GPC3 ERY22-dBBDu_189/L116 (bispecific antibody, human IgG1, kappa, L234A L235A, N297A)
heavy 1: DIVMTQSPLSLPVTPGEPASISCRSSQSLVHSNRNTYLHWYQQKPGQAPRLLIYKVSNRFSGVPDRFSGSGSGTDFTLKISRVEAEDVGVYYCSQNTHVPPTFGQGTKLEIKSSASTKGPSVFPLAPSSKSTSGGTAALGCLVKDYFPEPVTVSWNSGALTSGVHTFPAVLQSSGLYSLSSVVTVPSSSLGTQTYICNVNHKPSNTKVDKKVEPKSCDKTHTCPPCPAPEAAGGPSVFLFPPKPKDTLMISRTPEVTCVVVDVSHEDPEVKFNWYVDGVEVHNAKTKPREEQYASTYRVVSVLTVLHQDWLNGKEYKCKVSNKALPAPIEKTISKAKGQPREPQVCTLPPSRDELTKNQVSLWCLVKGFYPSDIAVEWESNGQPENNYKTTPPVLDSDGSFFLYSKLTVDKSRWQQGNVFSCSVMHEALHNHYTQKSLSLSPHHHHHHHH
light 1: QVQLVQSGAEVKKPGASVKVSCKASGYTFTDYEMHWIRQPPGQGLEWIGAIDPKTGDTAYSQKFKGRVTLTADKSTSTAYMELSSLTSEDTAVYYCTRFYSYTYWGQGTLVTVSSASVAAPSVFIFPPSDEQLKSGTASVVCLLNNFYPREAKVQWKVDNALQSGNSQESVTEQDSKDSTYSLSSTLTLSKADYEKHKVYACEVTHQGLSSPVTKSFNRGEC
heavy 2: QVQLVESGGGLVQPGRSLRLSCAASGFTFSNAWMHWVRQAPGKGLEWIAQIKDRSNQYATYYAPSVKGRFTISRDDSKNSIYLQMNSLKTEDTAVYYCHYVHYAQASSLLPSFGVDAWGQGTTVTVSSASTKGPSVFPLAPSSKSTSGGTAALGCLVKDYFPEPVTVSWNSGALTSGVHTFPAVLQSSGLYSLSSVVTVPSSSLGTQTYICNVNHKPSNTKVDKKVEPKSCDKTHTCPPCPAPEAAGGPSVFLFPPKPKDTLMISRTPEVTCVVVDVSHEDPEVKFNWYVDGVEVHNAKTKPREEQYASTYRVVSVLTVLHQDWLNGKEYKCKVSNKALPAPIEKTISKAKGQPREPQVYTLPPSRCELTKNQVSLSCAVKGFYPSDIAVEWESNGQPENNYKTTPPVLDSDGSFFLVSKLTVDKSRWQQGNVFSCSVMHEALHNHYTQKSLSLSPDYKDDDDK
light 2: DIVMTQSPLSLPVTPGEPASISCSSSQELVHANRQIYLHWYQQKPGQAPRLLIYKVANRFPGVPDRFSGSGSGTDFTLKISRVEAEDVGVYYCAQGTQVPFTFGQGTKLEIKRTVAAPSVFIFPPSDEQLKSGTASVVCLLNNFYPREAKVQWKVDNALQSGNSQESVTEQDSKDSTYSLSSTLTLSKADYEKHKVYACEVTHQGLSSPVTKSFNRGEC
B19: GPC3 ERY22-dBBDu_189/L119 (bispecific antibody, human IgG1, kappa, L234A L235A, N297A)
heavy 1: B18 heavy 1
light 1: B18 light 1
heavy 2: B18 heavy 2
light 2: B18 light 2 with S24T, S25A, A32I, Q35F, Y37F, A57S, P61I, T97S

Target: T1, cyno CD137 (cynomolgus monkey, UniProt Q07011 24-186 (human entry), limits assumed)
T1 construct: also called cynomolgus monkey CD137
T1 chain: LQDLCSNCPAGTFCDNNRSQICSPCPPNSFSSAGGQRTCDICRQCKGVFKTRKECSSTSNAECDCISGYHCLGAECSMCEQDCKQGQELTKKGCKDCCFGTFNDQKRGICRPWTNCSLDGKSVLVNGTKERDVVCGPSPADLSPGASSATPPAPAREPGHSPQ
Assay: SPR Biacore T200, IgG captured on protein A, 25 C;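 further: antigens diluted in ACES running buffer at pH 7.4 were flowed over antibodies held on a CM3 chip bearing amine-coupled protein A, with buffer alone serving as blank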
Description: (§1) Sensor chip CM3 (GE Healthcare) was immobilized with an appropriate amount of sure protein A (GE Healthcare) by amine coupling. The selected antibodies were captured by the chip to allow interaction to human CD3 ed, human CD137 and cyno CD137 as an antigen. The running buffer used was 20 mmol/1 ACES, 150 mmol/1 NaCl, 0.05% (w/v) Tween20, pH 7.4. All measurements were carried out at 25 degrees C. The antigens were diluted using the running buffer.
(§2) Diluted antigen solutions and the running buffer which is the blank were loaded at a flow rate of 30 micro L/min for 180 seconds to allow each concentration of the antigen to interact with the antibody captured on the sensor chip. […] Next, to regenerate the sensor chip, 10 mmol/L glycine-HCl, pH 1.5 was loaded at a flow rate of 30 micro L/min for 10 seconds and 50 mmol/L NaOH was loaded at a flow rate 30 micro L/min for 10 seconds.
(§3) Diluted antigen solutions and the running buffer which is the blank were loaded at a flow rate of 30 micro L/min for 120 seconds to allow each of the antigens to interact with the antibody captured on the sensor chip. […] Next, to regenerate the sensor chip, 10 mmol/L glycine-HCl, pH 1.5 was loaded at a flow rate of 30 micro L/min for 30 seconds and 50 mmol/L NaOH was loaded at a flow rate 30 micro L/min for 30 seconds.

Binder	Kd [µM]	koff [s⁻¹]	kon [M⁻¹ s⁻¹]
B1	4.17	0.0101	2430

These binders were tested against human CD3 ed (human, UniProt P07766 23-126; P04234 22-105, limits assumed) (assay: SPR Biacore T200, IgG captured on protein A, 25 C;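 further: antigens diluted in ACES running buffer at pH 7.4 were flowed over antibodies held on a CM3 chip bearing amine-coupled protein A, with buffer alone serving as blank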).
Chain of human CD3 ed (P07766 23-126 limits assumed, chain 1 of 2): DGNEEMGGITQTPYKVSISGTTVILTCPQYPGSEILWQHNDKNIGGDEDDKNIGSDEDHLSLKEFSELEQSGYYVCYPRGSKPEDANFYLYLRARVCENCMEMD
Chain of human CD3 ed (P04234 22-105 limits assumed, chain 2 of 2): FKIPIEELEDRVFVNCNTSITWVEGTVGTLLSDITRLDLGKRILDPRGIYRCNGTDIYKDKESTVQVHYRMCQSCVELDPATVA
Description: as §1, §2, §3

Binder	Kd [nM]	koff [s⁻¹]	kon [M⁻¹ s⁻¹]
B1	413	0.0216	52400

The binders below were run against T2, Human CD137 ECD (human) (assay: SPR Biacore T200, 37 C, Ab captured on anti-human Fc, antigen as analyte;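 further: recombinant human CD137 flowed over antibodies held by amine-coupled anti-human Fc on a CM4 chip, run in ACES pH 7.4 buffer with 150 mM NaCl and 0.05% Tween 20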).
T2 construct: also called human CD137 extracellular domain; recombinant human CD137
T2 sequence (chain, as listed by the source limits assumed): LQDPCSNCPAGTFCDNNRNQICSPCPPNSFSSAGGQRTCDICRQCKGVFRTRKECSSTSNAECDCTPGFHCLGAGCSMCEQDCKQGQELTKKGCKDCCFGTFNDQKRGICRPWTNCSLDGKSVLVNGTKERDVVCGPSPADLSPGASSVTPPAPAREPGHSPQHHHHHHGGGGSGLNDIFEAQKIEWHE
Description: (§4) Binding affinity of Dual-Fab antibodies (Dual-Ig) to human CD3 were assessed at 25 degrees C. using Biacore T200 instrument (GE Healthcare). Anti-human Fc (GE Healthcare) was immobilized onto all flow cells of a CM4 sensor chip using amine coupling kit (GE Healthcare). Antibodies were captured onto the anti-Fc sensor surfaces, then recombinant human CD3 or CD137 was injected over the flow cell. All antibodies and analytes were prepared in ACES pH 7.4 containing 20 mM ACES, 150 mM NaCl, 0.05% Tween 20, 0.005% NaN3. Sensor surface was regenerated each cycle with 3M MgCl2. […] CD137 binding affinity assay was conducted in same condition except assay temperature was set at 37 degrees C.

Binder	Kd [nM]	koff [s⁻¹]	kon [M⁻¹ s⁻¹]
B2	36.3	0.000742	20400
B3	78.1	0.00163	20900
B4	59.1	0.000722	12200
B5	32.8	0.000468	14300
B6	36.4	0.00047	12900
B7	80.4	0.00096	11900
B8	61.8	0.000801	13000
B9	111	0.00136	12200
B10	86.8	0.00105	12100
B11	103	0.0011	10700
B12	64.8	0.000647	9980
B13	43.2	0.000603	14000
B14	49.4	0.000606	12300
B15	42.8	0.000553	12900
B16	530	0.00579	10900

Target: T3, Human CD3eg linker (human)
T3 construct: Single chain: CD3 epsilon and gamma subunits joined by a 29-mer linker, Flag-tag at the C-terminus; also called recombinant human CD3
T3 chain: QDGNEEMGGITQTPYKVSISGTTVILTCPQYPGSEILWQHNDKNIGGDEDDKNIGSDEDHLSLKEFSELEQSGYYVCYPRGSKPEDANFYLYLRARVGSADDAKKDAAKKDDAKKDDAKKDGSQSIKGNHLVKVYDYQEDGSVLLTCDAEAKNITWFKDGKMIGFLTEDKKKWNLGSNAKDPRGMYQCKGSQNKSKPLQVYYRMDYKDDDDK
Assay: SPR Biacore T200, 25 C, Ab captured on anti-human Fc, antigen as analyte;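 further: Anti-Fc amine-coupled to a CM4 chip, recombinant human CD3 flowed over in 20 mM ACES buffer pH 7.4 with 150 mM NaCl and 0.05% Tween 20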
Description: as §4

Binder	Kd [nM]	koff [s⁻¹]	kon [M⁻¹ s⁻¹]
B17	340	0.012	35400
B2	525	0.0535	102000
B3	593	0.0584	98300
B4	21	0.00116	55000
B5	789	0.0481	61000
B7	13.3	0.00106	79600
B8	50.7	0.00253	50000
B9	157	0.0194	123000
B10	110	0.0156	142000
B11	20.9	0.00142	68000
B13	517	0.0371	71800
B14	265	0.0251	94600
B15	449	0.0336	75000
B16	43.8	0.00316	72000

These binders were tested against human CD137 on HDLM-2 cells (human, UniProt Q07011 24-255) (assay: cell-based or functional assay).
Chain of human CD137 on HDLM-2 cells (Q07011 24-255): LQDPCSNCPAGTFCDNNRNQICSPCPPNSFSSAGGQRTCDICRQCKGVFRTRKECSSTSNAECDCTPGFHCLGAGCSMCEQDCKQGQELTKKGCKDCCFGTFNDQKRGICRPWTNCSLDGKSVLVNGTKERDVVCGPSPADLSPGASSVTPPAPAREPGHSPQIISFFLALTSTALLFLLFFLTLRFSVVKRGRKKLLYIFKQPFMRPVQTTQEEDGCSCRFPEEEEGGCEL

Binder	Agonistic activity compared to B, antibody 6 ug/mL [%]	Agonistic activity compared to B, antibody 30 ug/mL [%]	Agonistic activity compared to Ctrl, antibody 6 ug/mL [%]	Agonistic activity compared to Ctrl, antibody 30 ug/mL [%]	hIL-6 (pg/mL), antibody 6 ug/mL [pg/mL]	hIL-6 (pg/mL), antibody 30 ug/mL [pg/mL]
B18	8.28	19.2	28.7	72.9	1300	1570
B19	6.92	20.4	24	77.3	1260	1610
